{"source": "paper PMC5626478", "about": "“LARP4 mRNA codon-tRNA match contributes to LARP4 activity for ribosomal protein mRNA poly(A) tail length protection”", "target": "LARP4-NTD (1-286) (human, UniProt Q71RC2 1-286)", "sequence (Q71RC2 1-286)": "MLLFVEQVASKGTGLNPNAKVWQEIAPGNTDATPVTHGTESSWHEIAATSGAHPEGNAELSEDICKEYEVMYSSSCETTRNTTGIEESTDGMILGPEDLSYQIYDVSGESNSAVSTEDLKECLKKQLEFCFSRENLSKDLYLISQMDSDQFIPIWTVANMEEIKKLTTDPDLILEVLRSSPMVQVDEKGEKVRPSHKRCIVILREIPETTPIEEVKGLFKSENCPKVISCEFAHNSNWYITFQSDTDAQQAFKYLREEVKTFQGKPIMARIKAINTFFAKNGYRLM", "assay": "EMSA; EMSA as described in Yang et al. 2011; buffer, salt, pH and temperature not given; protein in uM", "details": "protein: recombinant"}
{"binder": "AAAAAAAAAAAAAAA (ssRNA)", "note": "[A15 3'-OH]", "values": [{"measurement": "binding result", "value": "binds"}]}
